Data taken from patent publication US20260001928A1 (CORTERIA PHARMACEUTICALS, priority 2022, published 2026).
One block for each binder: values may come before it. *1 amine or outer side, *2 acyl side, *3 side chain or, on linkers, in order; H or OH if unused. Where no end group is shown, it is not given here. Side-chain parts run from the residue outwards. [ ]: non-standard residue; d: D form. The star is where a group is joined. C20 diacid = O=C(O)CCCCCCCCCCCCCCCCCCC(=O)*; γGlu = O=C(O)[C@H](CCC(=O)[*:2])N[*:1]; NMeI = CC[C@H](C)[C@H](NC)C(=O)O; Aib = CC(C)(N)C(=O)O

Key:
[1] = target: T1, CRF1R (corticotropin-releasing factor receptor 1), on the CRF1R-overexpression CHO-K1 cell line clone 2 (UniProt P34998 24-415, limits assumed); experiment: cell-based or functional assay
T1 sequence (looked up): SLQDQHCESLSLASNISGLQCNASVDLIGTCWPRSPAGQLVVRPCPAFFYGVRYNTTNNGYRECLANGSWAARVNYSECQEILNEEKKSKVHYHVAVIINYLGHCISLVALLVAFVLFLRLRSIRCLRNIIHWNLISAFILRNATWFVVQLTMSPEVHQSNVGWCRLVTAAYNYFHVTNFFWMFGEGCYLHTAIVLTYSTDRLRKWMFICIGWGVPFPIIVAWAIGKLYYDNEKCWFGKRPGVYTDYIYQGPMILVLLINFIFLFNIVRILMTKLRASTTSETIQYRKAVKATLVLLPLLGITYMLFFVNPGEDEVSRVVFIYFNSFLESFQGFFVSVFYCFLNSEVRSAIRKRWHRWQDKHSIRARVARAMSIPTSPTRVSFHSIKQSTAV

[2] = target: Rat CRF2 a (corticotropin-releasing factor receptor 2), on the A7R5 rat aortic smooth muscle cell line (rat, UniProt P47866 20-411); experiment: cell-based or functional assay
Sequence of Rat CRF2 a (corticotropin-releasing factor receptor 2), on the A7R5 rat aortic smooth muscle cell line (P47866 20-411): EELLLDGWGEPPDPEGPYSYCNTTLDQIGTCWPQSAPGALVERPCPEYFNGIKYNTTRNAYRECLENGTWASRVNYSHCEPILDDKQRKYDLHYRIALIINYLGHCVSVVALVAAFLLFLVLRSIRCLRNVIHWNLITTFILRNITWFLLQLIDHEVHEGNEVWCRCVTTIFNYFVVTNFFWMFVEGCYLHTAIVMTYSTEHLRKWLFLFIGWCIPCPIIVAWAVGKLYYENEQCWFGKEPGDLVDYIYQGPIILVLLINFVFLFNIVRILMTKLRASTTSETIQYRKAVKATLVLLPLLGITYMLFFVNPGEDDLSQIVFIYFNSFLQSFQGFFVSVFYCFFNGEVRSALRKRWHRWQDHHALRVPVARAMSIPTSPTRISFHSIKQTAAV

- EC50 [nM] (cAMP, CRF1R-overexpression CHO-K1 cells) [1]: > 250 nM
- Emax (% I) (cAMP, 100% = Sauvagine at 100 nM) [1]: 6 % I
- EC50 [nM] 0% HSA (cAMP, A7R5 rat aortic smooth muscle cells) [2]: 0.4 nM
B1: peptide of SEQ ID NO: 242 (peptide)
peptide: [NMeI]VLSLD[dV]PIKLK([γGlu-γGlu-C20 diacid])KILLEQEKQKEQREQAETN[Aib]QILAQV-NH2
modifications: N-terminus assumed
SMILES: CC[C@H](C)[C@H](NC)C(=O)N[C@H](C(=O)N[C@@H](CC(C)C)C(=O)N[C@@H](CO)C(=O)N[C@@H](CC(C)C)C(=O)N[C@@H](CC(=O)O)C(=O)N[C@@H](C(=O)N1CCC[C@H]1C(=O)N[C@H](C(=O)N[C@@H](CCCCN)C(=O)N[C@@H](CC(C)C)C(=O)N[C@@H](CCCCNC(=O)CC[C@H](NC(=O)CC[C@H](NC(=O)CCCCCCCCCCCCCCCCCCC(=O)O)C(=O)O)C(=O)O)C(=O)N[C@@H](CCCCN)C(=O)N[C@H](C(=O)N[C@@H](CC(C)C)C(=O)N[C@@H](CC(C)C)C(=O)N[C@@H](CCC(=O)O)C(=O)N[C@@H](CCC(N)=O)C(=O)N[C@@H](CCC(=O)O)C(=O)N[C@@H](CCCCN)C(=O)N[C@@H](CCC(N)=O)C(=O)N[C@@H](CCCCN)C(=O)N[C@@H](CCC(=O)O)C(=O)N[C@@H](CCC(N)=O)C(=O)N[C@@H](CCCNC(=N)N)C(=O)N[C@@H](CCC(=O)O)C(=O)N[C@@H](CCC(N)=O)C(=O)N[C@@H](C)C(=O)N[C@@H](CCC(=O)O)C(=O)N[C@H](C(=O)N[C@@H](CC(N)=O)C(=O)NC(C)(C)C(=O)N[C@@H](CCC(N)=O)C(=O)N[C@H](C(=O)N[C@@H](CC(C)C)C(=O)N[C@@H](C)C(=O)N[C@@H](CCC(N)=O)C(=O)N[C@H](C(N)=O)C(C)C)[C@@H](C)CC)[C@@H](C)O)[C@@H](C)CC)[C@@H](C)CC)C(C)C)C(C)C

- EC50 [nM] (cAMP, CRF1R-overexpression CHO-K1 cells) [1]: > 250 nM
- Emax (% I) (cAMP, 100% = Sauvagine at 100 nM) [1]: 7 % I
- EC50 [nM] 0% HSA (cAMP, A7R5 rat aortic smooth muscle cells) [2]: 3.52 nM
B2: peptide of SEQ ID NO: 241 (peptide)
peptide: Ac-IVLSLD[dV]PIKLK([γGlu-γGlu-C20 diacid])KILLEQEKQKEQREQAETN[Aib]QILAQV-NH2
SMILES: CC[C@H](C)[C@H](NC(C)=O)C(=O)N[C@H](C(=O)N[C@@H](CC(C)C)C(=O)N[C@@H](CO)C(=O)N[C@@H](CC(C)C)C(=O)N[C@@H](CC(=O)O)C(=O)N[C@@H](C(=O)N1CCC[C@H]1C(=O)N[C@H](C(=O)N[C@@H](CCCCN)C(=O)N[C@@H](CC(C)C)C(=O)N[C@@H](CCCCNC(=O)CC[C@H](NC(=O)CC[C@H](NC(=O)CCCCCCCCCCCCCCCCCCC(=O)O)C(=O)O)C(=O)O)C(=O)N[C@@H](CCCCN)C(=O)N[C@H](C(=O)N[C@@H](CC(C)C)C(=O)N[C@@H](CC(C)C)C(=O)N[C@@H](CCC(=O)O)C(=O)N[C@@H](CCC(N)=O)C(=O)N[C@@H](CCC(=O)O)C(=O)N[C@@H](CCCCN)C(=O)N[C@@H](CCC(N)=O)C(=O)N[C@@H](CCCCN)C(=O)N[C@@H](CCC(=O)O)C(=O)N[C@@H](CCC(N)=O)C(=O)N[C@@H](CCCNC(=N)N)C(=O)N[C@@H](CCC(=O)O)C(=O)N[C@@H](CCC(N)=O)C(=O)N[C@@H](C)C(=O)N[C@@H](CCC(=O)O)C(=O)N[C@H](C(=O)N[C@@H](CC(N)=O)C(=O)NC(C)(C)C(=O)N[C@@H](CCC(N)=O)C(=O)N[C@H](C(=O)N[C@@H](CC(C)C)C(=O)N[C@@H](C)C(=O)N[C@@H](CCC(N)=O)C(=O)N[C@H](C(N)=O)C(C)C)[C@@H](C)CC)[C@@H](C)O)[C@@H](C)CC)[C@@H](C)CC)C(C)C)C(C)C
